# Results from patent US20200085917A1.
# How the values were obtained:
# Experiment in all cases: GST pull-down, LC-MS/MS
# [1] = target: Stoml2_IPI:IPI00115117.1 (mouse) (UniProt Q99JB2)
# [2] = target: Nsf_IPI:IPI00656325.2 (mouse) (UniProt P46460)
# [3] = target: Hagh_IPI:IPI00115866.2 (mouse) (UniProt Q99KB8)
# [4] = target: Fahd1_IPI:IPI00468850.1 (mouse) (UniProt Q8R0F8)
# [5] = target: Lyrm4_IPI:IPI00169804.1 (mouse) (UniProt Q8K215)
# [6] = target: Tim23 (endogenous, mouse forebrain mitochondria) (mouse) (UniProt Q9WTQ8)
# [7] = target: Gstk1_IPI:IPI00121051.3 (mouse) (UniProt Q9DCM2)
# [8] = target: Fis1_IPI:IPI00132217.1 (mouse) (UniProt Q9CQ92)
# [9] = target: Dnajc19_IPI:IPI00111111.5 (mouse) (UniProt Q9CQV7)
# [10] = target: Synj2bp_IPI:IPI00109206.1 (mouse) (UniProt Q9D6K5)
# [11] = target: Cyc1_IPI:IPI00132728.2 (mouse) (UniProt Q9D0M3)
# [12] = target: Rtn1_IPI:IPI00395193.1 (mouse) (UniProt Q8K0T0)
# [13] = target: Gm561_IPI:IPI00344567.1 (mouse)
# [14] = target: Acp6_IPI:IPI00624175.1 (mouse) (UniProt Q8BP40)
# [15] = target: Cisd1_IPI:IPI00128346.1 (mouse) (UniProt Q91WS0)
# [16] = target: Acad8_IPI:IPI00274222.2 (mouse) (UniProt Q9D7B6)
# [17] = target: Gnao1_IPI:IPI00115546.4 (mouse) (UniProt P18872)
# [18] = target: Tim50 (endogenous, mouse) (mouse) (UniProt Q9D880)
# [19] = target: 2900010M23Rik_IPI:IPI00133350.1 (mouse)
# 2900010M23Rik_IPI:IPI00133350.1 (mouse), sequence (Q9CQY6 whole entry): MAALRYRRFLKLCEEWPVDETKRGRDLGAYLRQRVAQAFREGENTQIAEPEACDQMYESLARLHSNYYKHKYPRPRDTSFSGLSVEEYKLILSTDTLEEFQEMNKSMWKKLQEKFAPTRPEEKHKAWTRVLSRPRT
# Cyc1_IPI:IPI00132728.2 (mouse), sequence (Q9D0M3 85-325 limits assumed): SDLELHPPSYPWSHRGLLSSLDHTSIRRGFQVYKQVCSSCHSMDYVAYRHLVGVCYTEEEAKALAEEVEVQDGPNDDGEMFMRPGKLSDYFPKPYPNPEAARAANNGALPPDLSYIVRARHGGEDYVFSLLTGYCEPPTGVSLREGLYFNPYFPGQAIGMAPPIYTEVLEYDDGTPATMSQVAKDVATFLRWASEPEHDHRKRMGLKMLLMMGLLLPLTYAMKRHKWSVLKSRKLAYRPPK
# Cisd1_IPI:IPI00128346.1 (mouse), sequence (Q91WS0 whole entry): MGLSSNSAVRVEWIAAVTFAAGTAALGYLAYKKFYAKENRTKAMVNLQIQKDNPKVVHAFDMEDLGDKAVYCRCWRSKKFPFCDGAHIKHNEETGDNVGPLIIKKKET
# Acad8_IPI:IPI00274222.2 (mouse), sequence (Q9D7B6 21-413 limits assumed): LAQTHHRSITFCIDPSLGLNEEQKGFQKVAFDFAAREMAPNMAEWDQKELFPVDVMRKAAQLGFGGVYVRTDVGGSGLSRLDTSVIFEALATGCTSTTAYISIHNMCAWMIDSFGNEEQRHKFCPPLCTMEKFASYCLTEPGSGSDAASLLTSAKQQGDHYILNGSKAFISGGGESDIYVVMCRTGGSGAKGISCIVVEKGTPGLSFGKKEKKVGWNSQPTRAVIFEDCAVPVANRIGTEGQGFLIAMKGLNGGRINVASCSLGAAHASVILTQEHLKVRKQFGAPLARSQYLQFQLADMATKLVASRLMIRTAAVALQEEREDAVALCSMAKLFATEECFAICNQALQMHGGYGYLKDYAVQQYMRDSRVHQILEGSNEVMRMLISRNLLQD
# Dnajc19_IPI:IPI00111111.5 (mouse), sequence (Q9CQV7 2-116 limits assumed): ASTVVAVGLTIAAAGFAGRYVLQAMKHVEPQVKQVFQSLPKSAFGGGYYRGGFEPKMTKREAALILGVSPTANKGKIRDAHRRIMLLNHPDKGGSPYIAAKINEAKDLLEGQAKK
# Gnao1_IPI:IPI00115546.4 (mouse), sequence (P18872 2-354 limits assumed): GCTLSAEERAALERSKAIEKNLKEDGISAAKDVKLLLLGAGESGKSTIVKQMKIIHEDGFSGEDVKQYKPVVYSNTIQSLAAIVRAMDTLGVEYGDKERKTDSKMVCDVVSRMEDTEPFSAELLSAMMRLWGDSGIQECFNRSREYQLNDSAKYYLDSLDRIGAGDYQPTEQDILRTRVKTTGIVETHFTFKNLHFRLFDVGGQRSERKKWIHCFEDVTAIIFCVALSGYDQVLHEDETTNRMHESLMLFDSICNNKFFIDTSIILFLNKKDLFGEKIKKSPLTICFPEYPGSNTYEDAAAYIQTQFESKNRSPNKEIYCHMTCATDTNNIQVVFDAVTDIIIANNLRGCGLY
# Lyrm4_IPI:IPI00169804.1 (mouse), sequence (Q8K215 whole entry): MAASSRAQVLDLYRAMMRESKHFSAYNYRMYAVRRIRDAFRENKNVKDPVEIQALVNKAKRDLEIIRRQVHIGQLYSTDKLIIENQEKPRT
# Gstk1_IPI:IPI00121051.3 (mouse), sequence (Q9DCM2 whole entry): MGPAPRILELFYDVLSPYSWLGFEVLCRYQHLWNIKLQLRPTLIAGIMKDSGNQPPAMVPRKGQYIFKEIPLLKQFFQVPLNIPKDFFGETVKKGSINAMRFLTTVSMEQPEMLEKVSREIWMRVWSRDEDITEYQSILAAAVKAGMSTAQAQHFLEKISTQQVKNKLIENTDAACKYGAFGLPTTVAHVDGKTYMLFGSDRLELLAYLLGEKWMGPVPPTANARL
# Fis1_IPI:IPI00132217.1 (mouse), sequence (Q9CQ92 whole entry): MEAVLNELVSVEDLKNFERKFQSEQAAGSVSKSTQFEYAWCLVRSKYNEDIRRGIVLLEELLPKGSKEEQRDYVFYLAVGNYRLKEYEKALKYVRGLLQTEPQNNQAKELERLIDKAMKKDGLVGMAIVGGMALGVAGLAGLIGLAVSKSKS
# Acp6_IPI:IPI00624175.1 (mouse), sequence (Q8BP40 26-418 limits assumed): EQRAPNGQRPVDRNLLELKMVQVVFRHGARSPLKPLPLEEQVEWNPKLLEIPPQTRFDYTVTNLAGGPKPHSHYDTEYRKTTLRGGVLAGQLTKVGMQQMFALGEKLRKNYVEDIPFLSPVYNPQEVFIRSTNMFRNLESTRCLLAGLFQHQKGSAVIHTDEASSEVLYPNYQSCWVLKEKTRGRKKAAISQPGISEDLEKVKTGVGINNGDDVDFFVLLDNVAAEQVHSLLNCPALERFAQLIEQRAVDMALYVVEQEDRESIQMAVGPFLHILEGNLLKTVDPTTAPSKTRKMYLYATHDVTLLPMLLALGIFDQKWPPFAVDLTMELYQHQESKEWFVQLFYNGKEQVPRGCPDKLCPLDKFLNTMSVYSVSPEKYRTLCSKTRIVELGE
# Nsf_IPI:IPI00656325.2 (mouse), sequence (P46460 whole entry): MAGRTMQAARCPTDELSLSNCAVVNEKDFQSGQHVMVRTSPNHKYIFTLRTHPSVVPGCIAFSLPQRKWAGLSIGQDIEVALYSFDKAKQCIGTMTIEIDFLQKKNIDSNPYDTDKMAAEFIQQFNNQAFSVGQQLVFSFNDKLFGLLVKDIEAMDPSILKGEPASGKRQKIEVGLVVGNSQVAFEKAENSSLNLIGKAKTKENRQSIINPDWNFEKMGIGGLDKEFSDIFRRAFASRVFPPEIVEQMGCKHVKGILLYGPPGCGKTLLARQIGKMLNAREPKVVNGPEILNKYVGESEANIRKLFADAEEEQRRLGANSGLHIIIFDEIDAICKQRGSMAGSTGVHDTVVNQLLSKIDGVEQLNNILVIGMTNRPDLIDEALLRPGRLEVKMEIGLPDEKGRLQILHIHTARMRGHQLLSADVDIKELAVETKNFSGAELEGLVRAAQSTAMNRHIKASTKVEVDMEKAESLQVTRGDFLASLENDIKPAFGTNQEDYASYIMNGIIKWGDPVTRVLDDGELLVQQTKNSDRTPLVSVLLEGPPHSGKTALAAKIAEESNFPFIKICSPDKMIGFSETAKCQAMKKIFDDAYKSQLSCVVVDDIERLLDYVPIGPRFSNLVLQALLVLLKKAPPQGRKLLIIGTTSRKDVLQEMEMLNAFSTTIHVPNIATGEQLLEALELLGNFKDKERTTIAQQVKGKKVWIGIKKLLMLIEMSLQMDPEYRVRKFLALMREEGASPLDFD
# Tim50 (endogenous, mouse) (mouse), sequence (Q9D880 22-353 limits assumed): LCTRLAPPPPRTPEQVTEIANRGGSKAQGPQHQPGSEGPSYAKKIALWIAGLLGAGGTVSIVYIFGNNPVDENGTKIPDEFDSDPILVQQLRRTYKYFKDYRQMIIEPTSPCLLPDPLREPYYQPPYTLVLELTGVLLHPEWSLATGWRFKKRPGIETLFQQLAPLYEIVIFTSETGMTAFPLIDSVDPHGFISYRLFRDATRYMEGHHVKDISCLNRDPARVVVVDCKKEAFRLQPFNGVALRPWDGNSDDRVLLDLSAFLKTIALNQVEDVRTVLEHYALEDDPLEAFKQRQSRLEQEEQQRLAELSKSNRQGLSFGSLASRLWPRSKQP
# GST-Httex1-97Q, sequence (P08515 1-218, tags or fused parts left off): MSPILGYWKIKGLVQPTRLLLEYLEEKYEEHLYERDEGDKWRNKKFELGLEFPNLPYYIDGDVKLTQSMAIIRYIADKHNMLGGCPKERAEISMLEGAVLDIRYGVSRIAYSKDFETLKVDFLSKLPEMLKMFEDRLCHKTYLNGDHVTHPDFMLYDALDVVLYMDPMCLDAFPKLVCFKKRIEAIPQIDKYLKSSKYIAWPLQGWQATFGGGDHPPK
# Synj2bp_IPI:IPI00109206.1 (mouse), sequence (Q9D6K5 whole entry): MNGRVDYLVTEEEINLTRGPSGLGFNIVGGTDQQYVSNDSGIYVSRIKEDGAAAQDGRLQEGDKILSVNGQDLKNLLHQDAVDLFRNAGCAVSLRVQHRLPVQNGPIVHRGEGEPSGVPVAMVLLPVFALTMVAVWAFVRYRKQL
# Rtn1_IPI:IPI00395193.1 (mouse), sequence (Q8K0T0 whole entry): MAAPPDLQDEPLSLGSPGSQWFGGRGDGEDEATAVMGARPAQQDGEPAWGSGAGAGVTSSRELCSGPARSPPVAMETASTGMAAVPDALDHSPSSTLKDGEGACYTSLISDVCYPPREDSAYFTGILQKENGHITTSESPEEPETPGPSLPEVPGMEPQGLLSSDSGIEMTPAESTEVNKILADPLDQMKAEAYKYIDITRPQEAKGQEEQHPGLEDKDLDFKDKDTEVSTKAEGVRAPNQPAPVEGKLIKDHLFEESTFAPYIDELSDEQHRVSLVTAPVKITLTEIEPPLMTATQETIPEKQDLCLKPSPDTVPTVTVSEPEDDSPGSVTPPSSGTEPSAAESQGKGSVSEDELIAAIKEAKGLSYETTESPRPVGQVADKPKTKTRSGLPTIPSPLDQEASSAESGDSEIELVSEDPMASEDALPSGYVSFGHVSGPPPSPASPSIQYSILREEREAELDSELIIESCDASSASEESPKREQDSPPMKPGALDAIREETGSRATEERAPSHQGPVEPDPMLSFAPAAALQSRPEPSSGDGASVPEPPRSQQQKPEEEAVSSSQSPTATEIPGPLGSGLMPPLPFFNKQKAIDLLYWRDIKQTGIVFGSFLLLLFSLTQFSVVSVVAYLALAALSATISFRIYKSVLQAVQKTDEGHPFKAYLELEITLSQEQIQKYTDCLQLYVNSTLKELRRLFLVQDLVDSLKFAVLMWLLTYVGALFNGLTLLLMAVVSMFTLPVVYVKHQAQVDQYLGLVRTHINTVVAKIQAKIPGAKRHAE
# Stoml2_IPI:IPI00115117.1 (mouse), sequence (Q99JB2 29-353 limits assumed): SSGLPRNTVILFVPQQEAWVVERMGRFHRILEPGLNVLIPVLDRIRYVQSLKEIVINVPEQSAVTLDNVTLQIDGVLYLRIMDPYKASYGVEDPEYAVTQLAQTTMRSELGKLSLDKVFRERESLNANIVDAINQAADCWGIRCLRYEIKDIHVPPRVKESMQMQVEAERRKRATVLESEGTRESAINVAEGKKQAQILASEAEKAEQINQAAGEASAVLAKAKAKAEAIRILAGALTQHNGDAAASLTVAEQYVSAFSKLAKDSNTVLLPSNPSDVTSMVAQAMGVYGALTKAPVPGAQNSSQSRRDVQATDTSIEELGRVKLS
substance,measurement,setting,value
GST-Httex1-97Q (from UniProt P08515 1-218; P42858 1-88),No. of total peptides,[1],1 peptides
same,No. of unique peptides,[1],1 peptides
same,No. of total peptides,[2],1 peptides
same,No. of unique peptides,[2],1 peptides
same,No. of total peptides,[3],2 peptides
same,No. of unique peptides,[3],2 peptides
same,No. of total peptides,[4],1 peptides
same,No. of unique peptides,[4],1 peptides
same,No. of total peptides,[5],1 peptides
same,No. of unique peptides,[5],1 peptides
same,No. of total peptides,[6],1 peptides
same,No. of unique peptides,[6],1 peptides
same,No. of total peptides,[7],1 peptides
same,No. of unique peptides,[7],1 peptides
same,No. of total peptides,[8],2 peptides
same,No. of unique peptides,[8],2 peptides
same,No. of total peptides,[9],1 peptides
same,No. of unique peptides,[9],1 peptides
same,No. of total peptides,[10],1 peptides
same,No. of unique peptides,[10],1 peptides
same,No. of total peptides,[11],1 peptides
same,No. of unique peptides,[11],1 peptides
same,No. of total peptides,[12],1 peptides
same,No. of unique peptides,[12],1 peptides
same,No. of total peptides,[13],2 peptides
same,No. of unique peptides,[13],2 peptides
same,No. of total peptides,[14],2 peptides
same,No. of unique peptides,[14],2 peptides
same,No. of total peptides,[15],3 peptides
same,No. of unique peptides,[15],2 peptides
same,No. of total peptides,[16],1 peptides
same,No. of unique peptides,[16],1 peptides
same,No. of total peptides,[17],3 peptides
same,No. of unique peptides,[17],3 peptides
same,No. of total peptides,[18],3 peptides
same,No. of unique peptides,[18],3 peptides
same,No. of total peptides,[19],1 peptides
same,No. of unique peptides,[19],1 peptides
